Patent US12297265B2, “Antibody and use thereof” (SICHUAN KELUN-BIOTECH BIOPHARMACEUTICAL CO., LTD., priority 2018, dated 2025)
Numbering of substitutions follows the chain as printed.

B1: 6B9.22: mouse anti-human Claudin18.2 monoclonal antibody; VH SEQ ID NO: 50, VL SEQ ID NO: 51 (antibody, V domains shown)
VH: QVQLQQSGAELVKPGASVKMSCKAFGYTFTSYPIEWMKQNHGKSLEWIGNFHPYNDDTKYNEKFKGKAKLTVEKSSSTVYLELSRLTSDDSAVYYCARTYYGNSFAYWGQGTLVTVSS
VL: DIVMTQSPSSLTVTAGEKVTMSCKSSQSLLNSGNQKNYLTWYQQKPGQPPKLLIYWASSRDSGVPHRFTGSGSGTDFTLTISSVQAEDLAFYYCQNDYFYPFTFGAGTKLELK
modifications: heavy chain variable region sequence of mouse antibody 6B9.22; light chain variable region sequence of mouse antibody 6B9.22
B2: 19G10.14: mouse anti-human Claudin18.2 monoclonal antibody; VH SEQ ID NO: 52, VL SEQ ID NO: 53 (antibody, V domains shown)
VH: QVQLKESGPGLVAPSQSLSITCTVSGFSFTSYGVHWVRQPPGKGLEWLGVIWAGGSTDYNAALMSRLSIRKDNSKSQVFLKMNSLQIADTAMYYCARDGHGKVGFDVWGAGTTVTVSS
VL: DIVMTQSPSSLSVSAGEKVTMNCKSSQSLLNSGNQKNYLAWYQQKPGQPPKLLIYGASTRESGVPDRFTGGGSGTDFTLTISSVQAEDLAIYYCQNDHFYPFTFGSGTKLEIK
modifications: heavy chain variable region sequence of mouse antibody 19G10.14; light chain variable region sequence of mouse antibody 19G10.14
B3: 2C6.9: mouse anti-human Claudin18.2 monoclonal antibody; VH SEQ ID NO: 3, VL SEQ ID NO: 4 (antibody, V domains shown)
VH: QVQLKESGPGLVAPSQSLSITCTVSGFSLTRYGVSWVRQPPGKGLEWLGVIWGDGNTNFHSFLKSRLSISKDSSKSQVFLKLNSLQTDDTATYYCARVNFGNALDYWGQGTSVTVSS
VL: B1 VL with K18E, S59T, H66D, A86S, F91V, Y98F, F99I, Y100F, F102L
modifications: heavy chain variable region of mouse antibody 2C6.9; light chain variable region of mouse antibody 2C6.9
B4: 1E9.2: mouse anti-human Claudin18.2 monoclonal antibody; VH SEQ ID NO: 1, VL SEQ ID NO: 2 (antibody, V domains shown)
VH: EVMLVESGGGLVKPGGSLKLSCAASGFSFSNSAMSWVRQTPEKRLEGVATISSGDSYTYYPDSVKGRFTISRDNAKNSLYLQMSSLRSEDTAVYYCARQGYGNALDYWGQGTSVTVSS
VL: B1 VL with A57S, S59T, D61E, H66D, F91V, F99Y, F102L
modifications: heavy chain variable region of mouse antibody 1E9.2; light chain variable region of mouse antibody 1E9.2
B5: 19H11.6: mouse anti-human Claudin18.2 monoclonal antibody; VH SEQ ID NO: 44, VL SEQ ID NO: 45 (antibody, V domains shown)
VH: B4 VH with Y57F, S63T, S85R
VL: B1 VL with S22T, A57S, S59T, D61E, H66D, F91V, F99Y, F102L
modifications: heavy chain variable region sequence of mouse antibody 19H11.6; light chain variable region sequence of mouse antibody 19H11.6
B6: 16A9.11: mouse anti-human Claudin18.2 monoclonal antibody; VH SEQ ID NO: 46, VL SEQ ID NO: 47 (antibody, V domains shown)
VH: B4 VH with N74T, A97T, L105M
VL: B1 VL with A57S, S59T, D61E, H66D, F91V, F99Y, F102L
modifications: heavy chain variable region sequence of mouse antibody 16A9.11; light chain variable region sequence of mouse antibody 16A9.11
B7: 9C8.1: mouse anti-human Claudin18.2 monoclonal antibody; VH SEQ ID NO: 48, VL SEQ ID NO: 49 (antibody, V domains shown)
VH: QVQLQQSGAELVRPGSSVKISCKASGYAFSNYWMNWVKQRPGQGLEWIGQIYPGDGDTNYNGKFKGKATLTTDKSSSTAYMQLSSLTSEDSAVYFCARLYYGNSFAYWGQGTLVTVSS
VL: B1 VL with M21V, S59T, D61E, H66D, E87A, F91I, A106G, L112I
modifications: heavy chain variable region sequence of mouse antibody 9C8.1; light chain variable region sequence of mouse antibody 9C8.1
B8: 1E9.2-hz41: humanized antibody of 1E9.2; VH SEQ ID NO: 32, VL SEQ ID NO: 33 (antibody, V domains shown)
VH: B4 VH with M3Q, K19R, T40A, E42G, R44G, S84N, S88A, S113L
VL: DIVMTQSPDSLAVSLGERATINCKSSQSLLNSGNQKNYLTWYQQKPGQPPKLLIYWSSTRESGVPDRFSGSGSGTDFTLTISSLQAEDFAVYYCQNDYYYPLTFGGGTKVEIK
modifications: heavy chain variable region of humanized antibody 1E9.2hz41; light chain variable region of humanized antibody 1E9.2hz11/1E9.2hz21/1E9.2hz31/1E9.2hz41
B9: 1E9.2-hz21: humanized antibody of 1E9.2; VH SEQ ID NO: 30, VL SEQ ID NO: 33 (antibody, V domains shown)
VH: B4 VH with M3Q, K19R, T40A, E42G, R44G, A49S, P61A, S84N, S88A, S113L
VL: B8 VL
modifications: heavy chain variable region of humanized antibody 1E9.2hz21; light chain variable region of humanized antibody 1E9.2hz11/1E9.2hz21/1E9.2hz31/1E9.2hz41
B10: 1E9.2-hz31: humanized antibody of 1E9.2; VH SEQ ID NO: 31, VL SEQ ID NO: 33 (antibody, V domains shown)
VH: B4 VH with M3Q, K19R, T40A, E42G, R44G, P61A, S84N, S88A, S113L
VL: B8 VL
modifications: heavy chain variable region of humanized antibody 1E9.2hz31; light chain variable region of humanized antibody 1E9.2hz11/1E9.2hz21/1E9.2hz31/1E9.2hz41

Experiments:
human Claudin18.2 [1] = target: T1, human Claudin18.2 (Homo sapiens, UniProt P56856); experiment: FACS affinity of mouse anti-human Claudin18.2 antibodies to Ba/F3-Claudin 18.2 cells; type: binding; design: expressed in transfected cells; host or cells: Ba/F3 (BaF/3, DSMZ ACC300), hygromycin-selected monoclonal line
Experimental: The affinity of the candidates to Claudin18.2 was measured using FACS. Single hybridoma clone 1E9.2, 2C6.9, 6B9.22, 9C8.1, 16A9.11, 19G10.14 and 19H11.6 were cultured in serum-free medium and mouse antibodies were purified from 100 mL supernatant by protein A chromatography (MabSelect SuRe, GE). Ba/F3-Claudin18.1 and Ba/F3-Claudin18.2 cells were incubated with the purified mouse antibodies at various concentrations on ice for 30 min and mouse IgG was used as negative control (Thermo Fisher, Cat: 31903), followed by washing with FACS buffer (PBS+2% FBS) twice. The cells were then incubated with a fluorescent goat-anti-mouse secondary antibody (Jackson ImmunoResearch, Cat: 115-605-071) on ice for 30 min before FACS analysis.

human Claudin18.2 [2] = target: T1, human Claudin18.2; experiment: Affinity of chimeric and humanized antibodies to Ba/F3-Claudin 18.2 cells (IntelliCyt); type: binding; design: expressed in transfected cells; host or cells: Ba/F3 (BaF/3, DSMZ ACC300), hygromycin-selected monoclonal line
Text: In order to evaluate the anti-Claudin18.2 humanized antibodies, codon optimized cDNAs of the heavy chains and the light chains of the candidate humanized antibodies from Example 6 were synthesized and ligated into pcDNA3.4 (by Nanjing Genscript Biotech Corporation). Expi293F cells (purchased from Thermo Incorporation) were co-transfected with pcDNA3.4 coding the heavy chain and light chain of each antibody. The antibodies were purified from the supernatant using protein A (MabSelect SuRe, GE). The affinity of the humanized antibodies to Claudin18.2 was determined using Ba/F3-Claudin18.2 cells which over-expressed human Claudin18.2. Ba/F3-Claudin18.2 cells (60000 in 10 ul buffer) were incubated with purified humanized antibodies on ice for 30 min, followed by washing with buffer (PBS+2% FBS) twice and addition of Alexa647-labeled goat-anti-human IgG Fc antibody (1:500 dilution). The cells were incubated on ice for another 30 min and analyzed by IntelliCyt.

Max MFI (Max Mean Fluorescence Intensity) (human Claudin18.2 [1])	Max MFI (human Claudin18.2 [2])	Molecule
3.624 ×10^6	–	B1
3.501 ×10^6	–	B2
6.111 ×10^6	–	B3
5.085 ×10^6	–	B4
6.008 ×10^6	–	B5
5.815 ×10^6	–	B6
4.969 ×10^6	–	B7
–	11.28 ×10^6	B8
–	14.56 ×10^6	B9
–	10.64 ×10^6	B10
